Data published in patent US10428140B2, “Anti-EphA4 antibody” (EISAI R&D MANAGEMENT CO., LTD., priority 2015, dated 2019).

Columns and labels:
Assay in all cases: Selectivity ELISA of humanized antibodies for human Eph receptor
Assay type in all cases: binding
human EphA5 = target: T1, human EphA5 (Homo sapiens, UniProt P54756); conditions: coated protein 1 nM
T1 construct: a protein of the extracellular region of each human Eph receptor fused with the SEAP protein and the His tag; made in house; host or cells: Expi293F cells (culture supernatant)
Summary of the method: (§1)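 Steps: coat anti-His antibody; block, then 1% BlockAce overnight at 4 °C; add Eph receptor extracellular region-SEAP-His (1 nM final) 1 h; add humanized antibody 1 h; add HRP anti-IgG 1 h; develop TMB; stop with acid; read 450 nm.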

human EphA4 = target: T2, human EphA4 (Homo sapiens, UniProt P54764); conditions: coated protein 1 nM; reference set to 100%
T2 construct: made in house; not restated for the human SEAP-His protein
Summary of the method: as §1

human EphB2 = target: T3, human EphB2 (Homo sapiens, UniProt P29323); conditions: coated protein 1 nM
T3 construct: a protein of the extracellular region of each human Eph receptor fused with the SEAP protein and the His tag; made in house; host or cells: Expi293F cells
T3 sequence (P29323 19-543 limits assumed): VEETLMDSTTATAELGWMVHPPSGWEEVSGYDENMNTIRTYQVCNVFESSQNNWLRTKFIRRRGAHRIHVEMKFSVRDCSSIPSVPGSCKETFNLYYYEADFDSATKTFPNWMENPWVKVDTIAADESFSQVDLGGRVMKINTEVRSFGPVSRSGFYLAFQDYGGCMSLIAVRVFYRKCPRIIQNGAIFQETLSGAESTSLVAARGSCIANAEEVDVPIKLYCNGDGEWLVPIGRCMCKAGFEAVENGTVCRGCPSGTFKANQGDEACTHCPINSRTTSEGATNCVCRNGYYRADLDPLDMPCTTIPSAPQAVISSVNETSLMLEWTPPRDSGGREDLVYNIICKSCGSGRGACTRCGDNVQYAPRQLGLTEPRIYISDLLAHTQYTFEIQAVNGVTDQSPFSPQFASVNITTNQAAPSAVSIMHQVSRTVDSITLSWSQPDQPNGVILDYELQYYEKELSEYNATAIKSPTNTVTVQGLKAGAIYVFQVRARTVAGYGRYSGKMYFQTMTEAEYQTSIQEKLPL
Summary of the method: as §1

human EphA7 = target: T4, human EphA7 (Homo sapiens, UniProt Q15375); conditions: coated protein 1 nM
T4 construct: a protein of the extracellular region of each human Eph receptor fused with the SEAP protein and the His tag; made in house; host or cells: Expi293F cells (culture supernatant)
T4 sequence (Q15375 28-555 limits assumed): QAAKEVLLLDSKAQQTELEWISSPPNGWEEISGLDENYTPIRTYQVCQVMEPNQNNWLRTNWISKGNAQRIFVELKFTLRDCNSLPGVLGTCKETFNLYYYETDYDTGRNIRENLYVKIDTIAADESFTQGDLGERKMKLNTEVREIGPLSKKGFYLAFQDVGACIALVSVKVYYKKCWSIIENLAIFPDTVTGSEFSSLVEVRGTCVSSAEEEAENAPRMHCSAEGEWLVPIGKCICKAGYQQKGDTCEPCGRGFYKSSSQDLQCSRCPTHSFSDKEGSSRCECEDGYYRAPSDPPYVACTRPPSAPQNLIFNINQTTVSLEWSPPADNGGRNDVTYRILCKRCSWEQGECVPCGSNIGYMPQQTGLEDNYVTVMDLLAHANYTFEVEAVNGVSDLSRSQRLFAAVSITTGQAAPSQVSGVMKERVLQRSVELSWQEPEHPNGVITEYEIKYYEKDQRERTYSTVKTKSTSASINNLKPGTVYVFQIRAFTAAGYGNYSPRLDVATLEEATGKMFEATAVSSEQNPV
Summary of the method: as §1

T1 sequence (P54756 25-573 limits assumed): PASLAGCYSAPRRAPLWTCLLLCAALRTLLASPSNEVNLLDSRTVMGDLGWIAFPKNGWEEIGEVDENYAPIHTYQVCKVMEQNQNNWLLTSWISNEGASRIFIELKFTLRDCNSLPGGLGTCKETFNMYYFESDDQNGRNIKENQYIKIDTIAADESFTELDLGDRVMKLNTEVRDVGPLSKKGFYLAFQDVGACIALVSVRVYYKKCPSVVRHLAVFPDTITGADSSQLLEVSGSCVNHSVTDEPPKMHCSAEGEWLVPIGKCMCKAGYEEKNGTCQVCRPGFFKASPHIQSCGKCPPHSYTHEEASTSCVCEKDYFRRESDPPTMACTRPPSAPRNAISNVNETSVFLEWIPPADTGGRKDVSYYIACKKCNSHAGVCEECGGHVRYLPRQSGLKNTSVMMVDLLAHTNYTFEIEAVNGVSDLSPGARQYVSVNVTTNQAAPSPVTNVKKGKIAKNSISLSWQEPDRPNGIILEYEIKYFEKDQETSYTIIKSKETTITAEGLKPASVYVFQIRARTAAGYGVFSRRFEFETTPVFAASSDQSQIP
T2 sequence (P54764 20-547): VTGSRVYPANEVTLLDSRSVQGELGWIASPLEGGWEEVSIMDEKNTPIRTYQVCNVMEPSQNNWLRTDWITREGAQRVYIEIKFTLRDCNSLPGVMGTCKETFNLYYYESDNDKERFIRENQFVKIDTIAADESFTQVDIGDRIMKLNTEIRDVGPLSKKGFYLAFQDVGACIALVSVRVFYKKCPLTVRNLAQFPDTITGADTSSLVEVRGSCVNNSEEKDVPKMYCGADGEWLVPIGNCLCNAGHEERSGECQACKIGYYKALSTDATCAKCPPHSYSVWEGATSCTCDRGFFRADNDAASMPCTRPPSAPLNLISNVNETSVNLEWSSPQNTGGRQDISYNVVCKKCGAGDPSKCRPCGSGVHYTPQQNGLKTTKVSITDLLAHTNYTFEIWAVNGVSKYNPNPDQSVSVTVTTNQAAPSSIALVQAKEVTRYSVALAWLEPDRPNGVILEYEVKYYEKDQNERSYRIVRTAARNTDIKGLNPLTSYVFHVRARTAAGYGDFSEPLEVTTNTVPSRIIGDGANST

Molecule | hEphA5-SEAP-: absorbance at 450 nm, percentage with respect to hEphA4-SEAP-His as 100% (human EphA5) | hEphA4-SEAP-: absorbance at 450 nm, percentage with respect to hEphA4-SEAP-His as 100% (human EphA4) | hEphB2-SEAP-: absorbance at 450 nm, percentage with respect to hEphA4-SEAP-His as 100% (human EphB2) | hEphA7-SEAP-: absorbance at 450 nm, percentage with respect to hEphA4-SEAP-His as 100% (human EphA7)
88 (antibody, V domains shown, constant regions without entry; synthetic humanized antibody light chain variable region sequence; synthetic humanized antibody heavy chain variable region sequence) VL: DIQMTQSPSSLSASVGDRVTITCRASENIYRNLAWYQQKPGKAPQLLLYAATNLADGVPSRFSGSGSGTDYTLTISSLQPEDFATYYCQHFWGTPWTFGQGTKVEIK VH: QVQLVQSGSELKKPGASVKVSCKASGYTFTDYSMHWVRQAPGQGLKWMGWINTETGEPTYAQGFTGRFVFSLDTSVSTAYLQISSLKAEDTAVYYCARIPLYYYGSRYWYFDVWGQGTTVTVSS | 5.9% | 100% | 6.0% | 6.0%
92 (antibody, V domains shown, constant regions without entry; synthetic humanized antibody light chain variable region sequence; synthetic humanized antibody heavy chain variable region sequence) VL: DIQMTQSPSSLSASVGDRVTITCRASENIYRNLAWYQQKPGKAPQLLLYAATNLADGVPSRFSGSGSGTDYTLTISSLQPEDFATYYCQHFWGTPWTFGQGTKVEIK VH: QIQLVQSGSELKKPGASVKVSCKASGYTFTDYSMHWVRQAPGQGLKWMGWINTETGEPTYADDFKGRFVFSLDTSVSTAYLQISSLKAEDTAVYYCARIPLYYYGSRYWYFDVWGQGTTVTVSS | 6.8% | 100% | 6.6% | 6.4%
93 (antibody, V domains shown, constant regions without entry; synthetic humanized antibody light chain variable region sequence; synthetic humanized antibody heavy chain variable region sequence) VL: EIVMTQSPATLSVSPGERATLSCRASENIYRNLAWYQQKPGQSPRLLIYAATNLADGIPARFSGSGSGTEYTLTISSLQSEDFAVYYCQHFWGTPWTFGQGTKVEIK VH: QVQLVQSGSELKKPGASVKVSCKASGYTFTDYSMHWVRQAPGQGLEWMGWINTETGEPTYAQGFTGRFVFSLDTSVSTAYLQISSLKAEDTAVYYCARIPLYYYGSRYWYFDVWGQGTTVTVSS | 4.9% | 100% | 5.0% | 4.9%
90 (antibody, V domains shown, constant regions without entry; synthetic humanized antibody light chain variable region sequence; synthetic humanized antibody heavy chain variable region sequence) VL: DIQMTQSPSSLSASVGDRVTITCRASENIYRNLAWYQQKPGKAPQLLLYAATNLADGVPSRFSGSGSGTDYTLTISSLQPEDFATYYCQHFWGTPWTFGQGTKVEIK VH: QVQLVQSGSELKKPGASVKVSCKASGYTFTDYSMHWVRQAPGQGLEWMGWINTETGEPTYADDFKGRFVFSLDTSVSTAYLQISSLKAEDTAVYYCARIPLYYYGSRYWYFDVWGQGTTVTVSS | 5.1% | 100% | 5.9% | 4.9%
89 (antibody, V domains shown, constant regions without entry; synthetic humanized antibody light chain variable region sequence; synthetic humanized antibody heavy chain variable region sequence) VL: DIQMTQSPSSLSASVGDRVTITCRASENIYRNLAWYQQKPGKAPQLLLYAATNLADGVPSRFSGSGSGTDYTLTISSLQPEDFATYYCQHFWGTPWTFGQGTKVEIK VH: QIQLVQSGSELKKPGASVKVSCKASGYTFTDYSMHWVRQAPGQGLKWMGWINTETGEPTYAQGFTGRFVFSLDTSVSTAYLQISSLKAEDTAVYYCARIPLYYYGSRYWYFDVWGQGTTVTVSS | 5.8% | 100% | 5.7% | 5.4%
71 (antibody, V domains shown, synthetic humanized antibody heavy chain variable region sequence; synthetic humanized antibody light chain variable region sequence) VH: QIQLVQSGSELKKPGASVKVSCKASGYTFTDYSMHWVRQAPGQGLKWMGWINTETGEPTYAQGFTGRFVFSLDTSVSTAYLQISSLKAEDTAVYYCARIPLYYYGSRYWYFDVWGQGTTVTVSS VL: EIVMTQSPATLSVSPGERATLSCRASENIYRNLAWYQQKPGQSPRLLIYAATNLADGIPARFSGSGSGTEYTLTISSLQSEDFAVYYCQHFWGTPWTFGQGTKVEIK | 5.6% | 100% | 5.5% | 5.2%
94 (antibody, V domains shown, constant regions without entry; synthetic humanized antibody light chain variable region sequence; synthetic humanized antibody heavy chain variable region sequence) VL: EIVMTQSPATLSVSPGERATLSCRASENIYRNLAWYQQKPGQSPRLLIYAATNLADGIPARFSGSGSGTEYTLTISSLQSEDFAVYYCQHFWGTPWTFGQGTKVEIK VH: QVQLVQSGSELKKPGASVKVSCKASGYTFTDYSMHWVRQAPGQGLKWMGWINTETGEPTYAQGFTGRFVFSLDTSVSTAYLQISSLKAEDTAVYYCARIPLYYYGSRYWYFDVWGQGTTVTVSS | 6.5% | 100% | 7.0% | 6.1%
91 (antibody, V domains shown, constant regions without entry; synthetic humanized antibody light chain variable region sequence; synthetic humanized antibody heavy chain variable region sequence) VL: DIQMTQSPSSLSASVGDRVTITCRASENIYRNLAWYQQKPGKAPQLLLYAATNLADGVPSRFSGSGSGTDYTLTISSLQPEDFATYYCQHFWGTPWTFGQGTKVEIK VH: QVQLVQSGSELKKPGASVKVSCKASGYTFTDYSMHWVRQAPGQGLKWMGWINTETGEPTYADDFKGRFVFSLDTSVSTAYLQISSLKAEDTAVYYCARIPLYYYGSRYWYFDVWGQGTTVTVSS | 6.4% | 100% | 7.0% | 5.6%
